Measured values from the supplement of paper PMC5998384.

Tests used:
HeLa Kyoto [1] = assay: solubility change mitosis vs G1/S (difference of NP-40 vs SDS log2 ratios) (log2 ratio difference); higher = more soluble in mitosis
HeLa Kyoto [2] = assay: solubility in G1/S (NP-40 vs SDS abundance) (log2 ratio); higher = more soluble; settings: cell cycle stage: G1/S
HeLa Kyoto [3] = assay: melting temperature (median over replicates), in situ; higher = more thermally stable
HeLa Kyoto [4] = assay: thermal stability score vs G1/S (z-score of summed log2 fold changes over temperatures); higher = more thermally stable than in G1/S
[5] = cell cycle stage: early G1 (4.5 h after nocodazole release)
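Wherever melting temperature (median over replicates), in situ is given: HeLa Kyoto cells synchronized by double thymidine or nocodazole block, proteins quantified by TMT10plex mass spectrometry, three independent biological replicates.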
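Wherever solubility change mitosis vs G1/S (difference of NP-40 vs SDS log2 ratios) is given: synchronized HeLa Kyoto cells (double thymidine block for G1/S, nocodazole release for mitosis), protein amounts in NP-40 versus SDS lysates quantified by mass spectrometry, three biological replicates.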
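Wherever solubility in G1/S (NP-40 vs SDS abundance) is given: HeLa Kyoto cells arrested at G1/S by double thymidine block, proteins quantified by TMT10plex mass spectrometry in mild NP-40 versus SDS extracts, three biological replicates.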
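Wherever thermal stability score vs G1/S (z-score of summed log2 fold changes over temperatures) is given: synchronized HeLa Kyoto cells, proteins quantified by TMT10plex mass spectrometry, three biological replicates, mitosis taken 0.5 h after nocodazole release, G1/S directly after double thymidine block.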

MSFVAYEELIKEGDTAILSLGHGAMVAVRVQRGAQTQTRHGVLRHSVDLIGRPFGSKVTCGRGGWVYVLHPTPELWTLNLPHRTQILYSTDIALITMMLELRPGSVVCESGTGSGSVSHAIIRTIAPTGHLHTVEFHQQRAEKAREEFQEHRVGRWVTVRTQDVCRSGFGVSHVADAVFLDIPSPWEAVGHAWDALKVEGGRFCSFSPCIEQVQRTCQALAARGFSELSTLEVLPQVYNVRTVSLPPPDLGTGTDGPAGSDTSPFRSGTPMKEAVGHTGYLTFATKTPG [TRMT61A]
solubility change mitosis (log2) (HeLa Kyoto [1]): -0.00636 | solubility in G1/S (log2) (HeLa Kyoto [2]): -0.0252 | melting temperature (HeLa Kyoto [3]; cell cycle stage: G1/S): 55.4 °C | melting temperature (HeLa Kyoto [3]; cell cycle stage: mitosis): 57.5 °C | thermal stability score (HeLa Kyoto [4]; [5]): 0.944 | thermal stability score (HeLa Kyoto [4]; cell cycle stage: mitosis): -0.546

LACTB2
solubility change mitosis (log2) (HeLa Kyoto [1]): -0.0335 | solubility in G1/S (log2) (HeLa Kyoto [2]): 0.418 | melting temperature (HeLa Kyoto [3]; cell cycle stage: G1/S): 57.7 °C | melting temperature (HeLa Kyoto [3]; cell cycle stage: mitosis): 56.1 °C | thermal stability score (HeLa Kyoto [4]; [5]): -2.61 | thermal stability score (HeLa Kyoto [4]; cell cycle stage: mitosis): -0.348

MAEPQPPSGGLTDEAALSCCSDADPSTKDFLLQQTMLRVKDPKKSLDFYTRVLGMTLIQKCDFPIMKFSLYFLAYEDKNDIPKEKDEKIAWALSRKATLELTHNWGTEDDETQSYHNGNSDPRGFGHIGIAVPDVYSACKRFEELGVKFVKKPDDGKMKGLAFIQDPDGYWIEILNPNKMATLM [GLO1]
solubility change mitosis (log2) (HeLa Kyoto [1]): 0.168 | solubility in G1/S (log2) (HeLa Kyoto [2]): 0.117 | melting temperature (HeLa Kyoto [3]; cell cycle stage: G1/S): 55.8 °C | melting temperature (HeLa Kyoto [3]; cell cycle stage: mitosis): 54.5 °C | thermal stability score (HeLa Kyoto [4]; [5]): -0.959 | thermal stability score (HeLa Kyoto [4]; cell cycle stage: mitosis): -4.08

MGFLKLIEIENFKSYKGRQIIGPFQRFTAIIGPNGSGKSNLMDAISFVLGEKTSNLRVKTLRDLIHGAPVGKPAANRAFVSMVYSEEGAEDRTFARVIVGGSSEYKINNKVVQLHEYSEELEKLGILIKARNFLVFQGAVESIAMKNPKERTALFEEISRSGELAQEYDKRKKEMVKAEEDTQFNYHRKKNIAAERKEAKQEKEEADRYQRLKDEVVRAQVQLQLFKLYHNEVEIEKLNKELASKNKEIEKDKKRMDKVEDELKEKKKELGKMMREQQQIEKEIKEKDSELNQKRPQYIKAKENTSHKIKKLEAAKKSLQNAQKHYKKRKGDMDELEKEMLSVEKARQEFEERMEEESQSQGRDLTLEENQVKKYHRLKEEASKRAATLAQELEKFNRDQKADQDRLDLEERKKVETEAKIKQKLREIEENQKRIEKLEEYITTSKQSLEEQKKLEGELTEEVEMAKRRIDEINKELNQVMEQLGDARIDRQESSRQQRKAEIMESIKRLYPGSVYGRLIDLCQPTQKKYQIAVTKVLGKNMDAIIVDSEKTGRDCIQYIKEQRGEPETFLPLDYLEVKPTDEKLRELKGAKLVIDVIRYEPPHIKKALQYACGNALVCDNVEDARRIAFGGHQRHKTVALDGTLFQKSGVISGGASDLKAKARRWDEKAVDKLKEKKERLTEELKEQMKAKRKEAELRQVQSQAHGLQMRLKYSQSDLEQTKTRHLALNLQEKSKLESELANFGPRINDIKRIIQSREREMKDLKEKMNQVEDEVFEEFCREIGVRNIREFEEEKVKRQNEIAKKRLEFENQKTRLGIQLDFEKNQLKEDQDKVHMWEQTVKKDENEIEKLKKEEQRHMKIIDETMAQLQDLKNQHLAKKSEVNDKNHEMEEIRKKLGGANKEMTHLQKEVTAIETKLEQKRSDRHNLLQACKMQDIKLPLSKGTMDDISQEEGSSQGEDSVSGSQRISSIYAREALIEIDYGDLCEDLKDAQAEEEIKQEMNTLQQKLNEQQSVLQRIAAPNMKAMEKLESVRDKFQETSDEFEAARKRAKKAKQAFEQIKKERFDRFNACFESVATNIDEIYKALSRNSSAQAFLGPENPEEPYLDGINYNCVAPGKRFRPMDNLSGGEKTVAALALLFAIHSYKPAPFFVLDEIDAALDNTNIGKVANYIKEQSTCNFQAIVISLKEEFYTKAESLIGVYPEQGDCVISKVLTFDLTKYPDANPNPNEQ [SMC1A]
solubility change mitosis (log2) (HeLa Kyoto [1]): 0.0456 | solubility in G1/S (log2) (HeLa Kyoto [2]): -0.302 | melting temperature (HeLa Kyoto [3]; cell cycle stage: G1/S): 51.9 °C | melting temperature (HeLa Kyoto [3]; cell cycle stage: mitosis): 51.3 °C | thermal stability score (HeLa Kyoto [4]; [5]): -0.868 | thermal stability score (HeLa Kyoto [4]; cell cycle stage: mitosis): -1.79

MADDIDIEAMLEAPYKKDENKLSSANGHEERSKKRKKSKSRSRSHERKRSKSKERKRSRDRERKKSKSRERKRSRSKERRRSRSRSRDRRFRGRYRSPYSGPKFNSAIRGKIGLPHSIKLSRRRSRSKSPFRKDKSPVREPIDNLTPEERDARTVFCMQLAARIRPRDLEEFFSTVGKVRDVRMISDRNSRRSKGIAYVEFVDVSSVPLAIGLTGQRVLGVPIIVQASQAEKNRAAAMANNLQKGSAGPMRLYVGSLHFNITEDMLRGIFEPFGRIESIQLMMDSETGRSKGYGFITFSDSECAKKALEQLNGFELAGRPMKVGHVTERTDASSASSFLDSDELERTGIDLGTTGRLQLMARLAEGTGLQIPPAAQQALQMSGSLAFGAVAEFSFVIDLQTRLSQQTEASALAAAASVQPLATQCFQLSNMFNPQTEEEVGWDTEIKDDVIEECNKHGGVIHIYVDKNSAQGNVYVKCPSIAAAIAAVNALHGRWFAGKMITAAYVPLPTYHNLFPDSMTATQLLVPSRR [RBM39]
solubility change mitosis (log2) (HeLa Kyoto [1]): 0.531 | solubility in G1/S (log2) (HeLa Kyoto [2]): -1.07 | melting temperature (HeLa Kyoto [3]; cell cycle stage: G1/S): 47.2 °C | melting temperature (HeLa Kyoto [3]; cell cycle stage: mitosis): 49.3 °C | thermal stability score (HeLa Kyoto [4]; [5]): 1.15 | thermal stability score (HeLa Kyoto [4]; cell cycle stage: mitosis): 5.82

MAPQSLPSSRMAPLGMLLGLLMAACFTFCLSHQNLKEFALTNPEKSSTKETERKETKAEEELDAEVLEVFHPTHEWQALQPGQAVPAGSHVRLNLQTGEREAKLQYEDKFRNNLKGKRLDINTNTYTSQDLKSALAKFKEGAEMESSKEDKARQAEVKRLFRPIEELKKDFDELNVVIETDMQIMVRLINKFNSSSSSLEEKIAALFDLEYYVHQMDNAQDLLSFGGLQVVINGLNSTEPLVKEYAAFVLGAAFSSNPKVQVEAIEGGALQKLLVILATEQPLTAKKKVLFALCSLLRHFPYAQRQFLKLGGLQVLRTLVQEKGTEVLAVRVVTLLYDLVTEKMFAEEEAELTQEMSPEKLQQYRQVHLLPGLWEQGWCEITAHLLALPEHDAREKVLQTLGVLLTTCRDRYRQDPQLGRTLASLQAEYQVLASLELQDGEDEGYFQELLGSVNSLLKELR [SIL1]
solubility change mitosis (log2) (HeLa Kyoto [1]): -0.0794 | solubility in G1/S (log2) (HeLa Kyoto [2]): 0.7 | melting temperature (HeLa Kyoto [3]; cell cycle stage: G1/S): 53.5 °C | melting temperature (HeLa Kyoto [3]; cell cycle stage: mitosis): 53.4 °C | thermal stability score (HeLa Kyoto [4]; [5]): -0.386 | thermal stability score (HeLa Kyoto [4]; cell cycle stage: mitosis): 0.264
